The text below walks through data of patent US20040171794A1 (DYAX, published 2004).

The assay has as its target T1, human neutrophil elastase (human, UniProt P08246 30-247, limits assumed).
T1 construct: also called HNE; hNE
T1 sequence (looked up): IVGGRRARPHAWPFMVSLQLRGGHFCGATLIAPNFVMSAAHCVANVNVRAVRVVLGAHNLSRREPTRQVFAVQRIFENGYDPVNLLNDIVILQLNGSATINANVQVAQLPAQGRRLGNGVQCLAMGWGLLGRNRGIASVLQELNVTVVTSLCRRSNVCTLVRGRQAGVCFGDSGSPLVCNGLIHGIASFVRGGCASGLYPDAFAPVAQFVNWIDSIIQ
The experiment in a line: equilibrium inhibition of HNE activity on a fluorogenic peptide substrate, tight-binding model, 24 h incubation at 30 C.

Experimental: Inhibition of hNE was determined at 30° C. in 50 mM HEPES, pH 7.5, 150 mM NaCl, and 0.1% Triton X-100. […] Residual enzymatic activities were determined from the relative rates of substrate hydrolysis. The hydrolysis reaction was initiated by addition of N-methoxysuccinyl-Ala-Ala-Pro-Val-7-amino-methylcoumarin (SEQ ID No.: 41) as substrate. Enzymatic cleavage of this substrate releases the methylcoumarin moiety with concomitant increase the sample fluorescence. The rate of substrate hydrolysis was monitored at an excitation of 360 nm and an emission of 460 nm. Plots of the percent remaining activity versus inhibitor concentration were fit by nonlinear regression analysis to Equation 1 to determine equilibrium dissociation constants.

B1: DX-890 (peptide)
chain: EACNLPIVRGPCIAFFPRWAFDAVKGKCVLFPYGGCQGNGNKFYSEKECREYCGVP
notes: also called native DX-890
With B1, the binding result is listed as “binds”.
